What was measured:
[1] = biological target: T1, Mouse Aβ 1-40 (mouse, UniProt P12023 672-711); assay: BIAcore, single concentration of peptide
T1 construct: domain: Aβ 1-40; Numbers count on the Aβ peptide
T1 peptide (looked up): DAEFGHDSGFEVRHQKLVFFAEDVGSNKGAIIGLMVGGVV
Text: (§1) All dilutions were made with HEPES buffered saline containing Tween 20. A single concentration of a variety of fragments of human Aβ or mouse Aβ 1-40 (BioSource International) was used.

[2] = biological target: T2, β-amyloid peptide (1-42) (UniProt P05067 672-713); assay: competitive ELISA on coated β-amyloid peptide (1-42); competitor against biotinylated Mu3D6 (0.2 µg/ml); first set of three experiments
T2 construct: domain: β-amyloid peptide (1-42); Numbers 1-42 count on the Aβ peptide, not on the APP precursor entry; also called Aβ 1-42; Amyloid-beta 1-42
Experimental: (§2) After washing the wells with phosphate buffered saline (PBS) containing 0.1% Tween 20 (Washing Buffer) using an ELISA plate washer, the wells were blocked by adding 300 μL of SuperBlock reagent (Pierce) per well. After 30 minutes of blocking, the wells were washed with Washing Buffer and excess liquid was removed.
(§3) As a background control, 100 μl of ELISA Buffer was added. The ELISA plate was incubated at room temperature for 90 min. […] The plate was incubated at room temperature for 30 min and washed with Washing Buffer. For color development, 100 μl/well of ABTS Peroxidase Substrate (Kirkegaard & Perry Laboratories) was added. Color development was stopped by adding 100 μl/well of 2% oxalic acid. […] The absorbances were plotted against the log of the competitor concentration, curves were fit to the data points (using Prism) and the IC50 was determined for each antibody using methods well-known in the art.

[3] = biological target: T2, β-amyloid peptide (1-42); assay: competitive ELISA on coated β-amyloid peptide (1-42); competitor against biotinylated Mu3D6; second set of three experiments
Experimental: as §2, §3

[4] = biological target: T3, Human Aβ fragment 16-25 (human, UniProt P05067 687-696); assay: BIAcore, single concentration of fragment
T3 construct: domain: Aβ fragment 16-25; Numbers count on the Aβ peptide; also called human amyloid beta 16-25
T3 peptide (looked up): KLVFFAEDVG
Text: as §1

[5] = biological target: T4, Human Aβ fragment 10-20 (human, UniProt P05067 681-691); assay: BIAcore, single concentration of fragment
T4 construct: domain: Aβ fragment 10-20; Numbers count on the Aβ peptide; also called human amyloid beta 10-20
T4 peptide (looked up): YEVHHQKLVFF
Text: as §1

[6] = biological target: T2, β-amyloid peptide (1-42); assay: BIAcore 2000, antibody captured by anti-IgG on CM5 chip, Aβ flowed over
Experimental: Antibody affinity (KD=Kd/Ka) was determined using a BIAcore biosensor 2000 and data analyzed with BIAevaluation (v. 3.1) software. A capture antibody (rabbit anti-mouse or anti-human IgG) was coupled via free amine groups to carboxyl groups on flow cell 2 of a biosensor chip (CM5) using N-ethyl-N-dimethylaminopropyl carbodiimide and N-hydroxysuccinimide (EDC/NHS). A non-specific rabbit IgG was coupled to flow cell 1 as a background control. Monoclonal antibodies were captured to yield 300 resonance units (RU). […] To regenerate the chip, bound anti-Aβ antibody was eluted from the chip using a wash with glycine-HCl (pH 2). A control injection containing no amyloid-beta served as a control for baseline subtraction.

T2 sequence (P05067 672-713 limits assumed): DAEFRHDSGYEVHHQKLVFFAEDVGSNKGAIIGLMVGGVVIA

B1: Humanized 3D6 antibody (antibody, human IgG1, kappa, V domains shown)
VH: EVQLVESGGGLVQPGGSLRLSCAGSGFTFSNYGMSWVRQAPGKGLEWVASIRSGGGRTYYSDNVKGRFTISRENAKNSLYLQMNSLRAEDTAVYYCVRYDHYSGSSDYWGQGTLVTVSS
VL: DVVMTQSPLSLPVTLGQPASISCKSSQSLLDSDGKTYLNWLQQRPGQSPRRLIYLVSKLDSGVPDRFSGSGSGTDFTLKISRVEAEDVGVYYCWQGTHFPRTFGGGTKVEIKR
notes: Expressed from pVk-Hu3D6 and pVg1-Hu3D6 in Sp2/0 (human kappa, gamma 1); also called Hu3D6
binding result [1]: no binding | IC50 [2]: 3.3 µg/mL | IC50 [3]: 3.97 µg/mL | binding result [4]: no binding | binding result [5]: no binding | Kd [6]: 2.3 nM

Reference: patent US20050090648A1 (Eli Lilly, published 2005)
